Data taken from paper PMC4197110.

Biological target: dynamic microtubules grown from GMPCPP-stabilized seeds (UniProt Q6B856)
Assay: optical trap rupture force assay

Sequence of UniProt Q6B856 (Q6B856 whole entry, looked up): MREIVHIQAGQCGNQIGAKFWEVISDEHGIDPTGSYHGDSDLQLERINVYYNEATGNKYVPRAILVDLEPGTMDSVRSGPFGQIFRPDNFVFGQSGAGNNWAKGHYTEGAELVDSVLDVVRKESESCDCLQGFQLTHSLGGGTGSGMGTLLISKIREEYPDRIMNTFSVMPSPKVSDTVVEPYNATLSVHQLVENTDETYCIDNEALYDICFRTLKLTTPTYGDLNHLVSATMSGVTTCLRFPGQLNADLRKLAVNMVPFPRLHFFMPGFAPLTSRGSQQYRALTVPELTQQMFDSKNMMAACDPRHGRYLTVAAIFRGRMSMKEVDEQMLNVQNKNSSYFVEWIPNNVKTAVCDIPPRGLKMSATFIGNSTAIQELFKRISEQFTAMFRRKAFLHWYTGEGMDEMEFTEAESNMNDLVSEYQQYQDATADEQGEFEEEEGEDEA

mean rupture force: 2.7 pN
Substance: dad1-1 kinetochore particles (from UniProt P40568 1-576) (complex)
